Reference: patent US20180037654A1 (ADURO BIOTECH HOLDINGS EUROPE B V, published 2018)

T1: human CTLA-4 (human, UniProt P16410 36-223)
T1 construct: Endogenous CTLA-4 of stimulated human CD3+ T cells (stained after fixation and permeabilization) and membrane CTLA-4 of the Jurkat reporter cells; also called hCTLA-4; CTLA-4 expressed on human CD3+ T cells
T1 sequence: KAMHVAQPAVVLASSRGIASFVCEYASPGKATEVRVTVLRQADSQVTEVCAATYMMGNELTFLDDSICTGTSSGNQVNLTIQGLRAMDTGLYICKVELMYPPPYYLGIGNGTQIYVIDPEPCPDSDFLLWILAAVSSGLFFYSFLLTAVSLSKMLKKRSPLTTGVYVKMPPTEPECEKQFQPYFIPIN

T2: Hum-Mou-CTLA-4 (human/mouse chimera)
T2 construct: Human residues on strand 1, 2, 5 and 6 and mouse residues on strand 3, 4, 7 and 8; transiently expressed on CHO-K1 cells; also called human-mouse variant; human-mouse exchange mutant
T2 chain: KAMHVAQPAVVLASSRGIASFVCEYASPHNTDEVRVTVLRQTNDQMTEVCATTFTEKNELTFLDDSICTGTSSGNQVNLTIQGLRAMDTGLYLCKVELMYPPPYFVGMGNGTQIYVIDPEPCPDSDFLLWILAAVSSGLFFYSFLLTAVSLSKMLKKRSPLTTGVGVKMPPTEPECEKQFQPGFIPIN

T3: Mou-Hum-CTLA-4 (mouse/human chimera)
T3 construct: Mouse residues on strand 1, 2, 5 and 6 and human residues on strand 3, 4, 7 and 8; transiently expressed on CHO-K1 cells; also called mouse-human variant; mouse-human exchange mutant
T3 chain: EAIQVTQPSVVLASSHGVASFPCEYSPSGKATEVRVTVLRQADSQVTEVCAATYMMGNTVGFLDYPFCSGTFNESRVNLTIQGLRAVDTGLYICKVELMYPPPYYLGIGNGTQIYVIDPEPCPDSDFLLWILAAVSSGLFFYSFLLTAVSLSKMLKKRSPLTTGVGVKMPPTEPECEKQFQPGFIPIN


What was measured:
[1] = molecular target: T4, human CTLA-4 (Y166G and Y183G) expressed on CHO-K1.hCTLA-4 cells (human, UniProt P16410 36-223); assay: CELISA on CHO-K1.hCTLA-4 cells
Description: Binding of the humanized antibodies to hCTLA-4 was studied in CELISA format. CHO-K1.hCTLA-4 cells were seeded in culture medium (DMEM-F12 (Gibco) with 10% Fetal Bovine Serum (Hyclone) and Pen/Strep (Gibco)) in tissue culture plates and cultured at 37° C., 5% CO₂ and 95% humidity until they were confluent. Subsequently, culture medium was removed and cells were incubated for 1 hour at 37° C., 5% CO₂ and 95% humidity with purified hCTLA-4 antibodies (10 μg/ml and dilutions thereof). Next, cells were washed with PBS/0.05% Tween (PBST) and incubated for 1 hour at 37° C., 5% CO₂ and 95% humidity with goat-anti-human IgG-HRP (Southern Biotechnology) or goat-anti-mouse IgG-HRP (Southern Biotechnology). Subsequently, cells were washed 3 times with PBST and anti-hCTLA-4 immunoreactivity was visualized with TMB Stabilized Chromagen (Invitrogen). Reactions were stopped with 0.5 M H₂SO₄ and absorbances were read at 450 and 610 nm.
Target sequence in this assay (P16410 36-223 Y201G/Y218G limits assumed): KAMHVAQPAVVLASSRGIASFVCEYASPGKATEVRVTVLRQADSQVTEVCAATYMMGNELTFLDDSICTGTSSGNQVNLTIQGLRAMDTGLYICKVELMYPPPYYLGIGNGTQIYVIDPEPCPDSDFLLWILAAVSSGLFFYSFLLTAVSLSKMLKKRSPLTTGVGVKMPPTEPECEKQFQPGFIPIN

[2] = molecular target: T4, human CTLA-4 (Y166G and Y183G) …; assay: CELISA on CHO-K1.hCTLA-4 cells (Example 6)
Description: (§1) In short, CELISA for hCTLA-4 binding was performed on CHO-K1.hCTLA-4 cells. […] Once the cells were confluent culture medium was removed and cells were incubated for 1 hour with the hCTL4.27 antibodies and control antibodies (10 μg/ml and dilutions thereof) at 37° C., 5% CO₂ and 95% humidity. […] Cells were then washed with PBST followed by addition of Streptavidin-HRP conjugate on the cells, which was incubated for 1 hour at 37° C., 5% CO₂ and 95% humidity. […] Reactions were stopped with 0.5 M H₂SO₄ and absorbances were read at 450 and 610 nm. IC50 values represent the concentration at which half of the inhibition is observed.

[3] = molecular target: T4, human CTLA-4 (Y166G and Y183G) …; assay: CELISA, blockade of biotinylated hCD80/Fc binding to CHO-K1.hCTLA-4 cells
Description: CHO-K1.hCTLA-4 cells were seeded in tissue culture plates and incubated at 37° C., 5% CO₂ and 95% humidity in culture medium. Once the cells were confluent culture medium was removed and cells were incubated for 1 hour with the humanized hCTL4.27 antibody variants (10 μg/ml and dilutions thereof) at 37° C., 5% CO₂ and 95% humidity. […] Cells were then washed with PBST followed by addition of Streptavidin-HRP conjugate on the cells, which was incubated for 1 hour at 37° C., 5% CO₂ and 95% humidity. […] Reactions were stopped with 0.5 M H₂SO₄ and absorbances were read at 450 and 610 nm. […] IC50 values represent the concentration at which half of the inhibition is observed.
Target sequence in this assay (P16410 36-223 Y201G/Y218G limits assumed): as above

[4] = molecular target: T4, human CTLA-4 (Y166G and Y183G) …; assay: CELISA, blockade of biotinylated hCD80/Fc binding to CHO-K1.hCTLA-4 cells (Example 6)
Description: as §1

[5] = molecular target: T4, human CTLA-4 (Y166G and Y183G) …; assay: CELISA, blockade of biotinylated hCD86/Fc binding to CHO-K1.hCTLA-4 cells (Example 6)
Description: as §1

[6] = molecular target: T1, human CTLA-4; assay: CELISA on CHO-K1 cells transiently transfected with human CTLA-4, panel Human
Description: (§2) The cDNAs encoding these constructs (SEQ ID NO: 41 and 43, respectively) were synthesized and subcloned into the pCI-Neo vector (GeneArt). […] To this end CHO-K1 cells were transiently transfected, using Lipofectamine 2000 (Invitrogen), with the pCI-Neo vectors expressing human CTLA-4 (hCTLA-4), mouse CTLA-4 (mCTLA-4) (SEQ ID NO: 45), Hum-Mou-CTLA-4, and Mou-Hum-CTLA-4 respectively. The transfected cells were cultured at 37° C., 5% CO₂ and 95% humidity in medium (DMEM-F12 (Gibco) with 5% New Born Calf serum (Biowest) and Pen/Strep (Gibco)) until confluent. Subsequently, cells were trypsinized and seeded in tissue culture plates and cultured at 37° C., 5% CO₂ and 95% humidity in culture medium until confluent. Then, culture medium was removed and cells were incubated for 1 hour at 37° C., 5% CO₂ and 95% humidity with hCTLA-4 antibodies. Next, cells were washed with PBS/0.05% Tween (PBST) and incubated for 1 hour at 37° C., 5% CO₂ and 95% humidity with 1:2,000 goat-anti-human IgG-HRP (Jackson Immunoresearch). After that, cells were washed 3 times with PBST and anti-CTLA-4 immunoreactivity was visualized with TMB Stabilized Chromagen (Invitrogen).

[7] = molecular target: T2, Hum-Mou-CTLA-4; assay: CELISA on CHO-K1 cells transiently transfected with Hum-Mou-CTLA-4, panel Human/Mouse
Description: as §2

[8] = molecular target: T3, Mou-Hum-CTLA-4; assay: CELISA on CHO-K1 cells transiently transfected with Mou-Hum-CTLA-4, panel Mouse/Human
Description: as §2

[9] = molecular target: T5, rhCTLA-4/Fc/6His (human); assay: BLI (Octet RED96), antibody amine-coupled to biosensor, rhCTLA-4/Fc 2.5-40 nM, 1:1 global fit
T5 construct: Bought from R&D Systems
Description: hCTLA4.27 binding kinetics and equilibrium binding constants were profiled using […] on the Octet RED96 and compared to several antibodies known in the art. […] Amine-reactive biosensors were pre-wet by immersing them in wells containing 0.1M MES pH=5.5 for 10 minutes. The biosensors were then activated using a 0.1M NHS/0.4M EDC mixture for 5 minutes. Antibodies were coupled by immersing the biosensors in a solution of 2.5 or 12 ug/mL antibody in 0.1M MES for 7.5 minutes. The biosensor surface was quenched using a solution of IM ethanolamine for 5 minutes. Biosensors were equilibrated in Octet kinetics buffer (ForteBio) for 5 minutes. Association of rhCTLA-4/Fc (R&D Systems) was observed by placing the biosensors in wells containing various rhCTLA-4/Fc concentrations (2.5-40 nM) and monitoring interferometry for 15 minutes. Dissociation was measured after transfer of the biosensors into kinetics buffer and monitoring of the interferometry signal for 45 minutes. The assay was run with a plate temperature of 30° C. The observed on and off rates (kon and kdis) were fit using a 1:1 binding global fit model comprising all concentrations tested, and the equilibrium binding constant KD was calculated.

[10] = molecular target: T4, human CTLA-4 (Y166G and Y183G) …; assay: CELISA, blockade of biotinylated hCD80/Fc binding to CHO-K1.hCTLA-4 cells (Example 6); blockade of hCD80/Fc binding to CHO-K1.hCTLA-4 cells
Description: as §1

T5 sequence (chain, as listed by the source limits assumed): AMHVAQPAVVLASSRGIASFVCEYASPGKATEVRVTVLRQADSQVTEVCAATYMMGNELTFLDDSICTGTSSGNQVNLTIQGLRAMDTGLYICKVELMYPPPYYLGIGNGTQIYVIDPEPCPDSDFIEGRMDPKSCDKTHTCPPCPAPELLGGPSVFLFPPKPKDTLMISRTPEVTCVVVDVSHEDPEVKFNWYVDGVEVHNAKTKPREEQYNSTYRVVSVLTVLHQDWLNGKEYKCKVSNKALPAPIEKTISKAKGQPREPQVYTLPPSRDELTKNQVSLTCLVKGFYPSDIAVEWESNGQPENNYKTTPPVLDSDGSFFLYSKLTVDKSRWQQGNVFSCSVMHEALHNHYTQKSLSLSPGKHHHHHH

| EC50 [1] [nM] | EC50 [2] [nM] | IC50 [3] [nM] | IC50 [4] [nM] | IC50 [5] [nM] | EC50 (read off the curve) [6] [nM] | EC50 (read off the curve) [7] [nM] | Kd [9] [nM] | koff [9] [s⁻¹] | kon [9] [M⁻¹ s⁻¹] | IC50 [10] [nM] | Binder | binding result [8] |
| --- | --- | --- | --- | --- | --- | --- | --- | --- | --- | --- | --- | --- |
| 0.033 | 0.053 | 1.61 | 1.6 | 1.21 | ~0.06 | ~0.08 |  |  |  |  | hCTLA4.27A.C4 (antibody, V domains shown, Chimeric: mouse variable domains on human IgG4, kappa; also called hCTLA4.27A chimeric hIgG4) VH: QVQLQQPGAVLVRPGVSVKLSCKASGYSFTTYWMNWVKQRPGQGLEWIGMIHPSDSETSLNQAFKDKATLTIDKSSSTAYMQLSSPTSEDSAVYFCARMGRRNPYYFDYWGQGTTLTVSS VL: DIQMTQSPVSLSVSVGETVTITCRPSENLYTNLAWYQQKQGKSPQLLVYGATNLADGVPSRFSGSGSGTQYSLRINSLQSEDFGTYYCQHLWGTPFTFGSGTKLELK | no binding (tested: log nM about 1.8 (about 60 nM)) |
| 0.022 | 0.034 | 1.53 | 1.45 | 1.18 |  |  |  |  |  |  | hCTLA4.27A.C1 (antibody, V domains shown, Chimeric: mouse variable domains on human IgG1, kappa; also called hCTLA4.27A chimeric hIgG1) VH: QVQLQQPGAVLVRPGVSVKLSCKASGYSFTTYWMNWVKQRPGQGLEWIGMIHPSDSETSLNQAFKDKATLTIDKSSSTAYMQLSSPTSEDSAVYFCARMGRRNPYYFDYWGQGTTLTVSS VL: DIQMTQSPVSLSVSVGETVTITCRPSENLYTNLAWYQQKQGKSPQLLVYGATNLADGVPSRFSGSGSGTQYSLRINSLQSEDFGTYYCQHLWGTPFTFGSGTKLELK |  |
| 0.048 | 0.053 | 2.17 |  | 2.17 |  |  | 2 | 0.00045 | 500000 | 2.71 | hCTLA4.27A (antibody, V domains shown, also called mouse hCTLA4.27A; parental antibody) VH: QVQLQQPGAVLVRPGVSVKLSCKASGYSFTTYWMNWVKQRPGQGLEWIGMIHPSDSETSLNQAFKDKATLTIDKSSSTAYMQLSSPTSEDSAVYFCARMGRRNPYYFDYWGQGTTLTVSS VL: DIQMTQSPVSLSVSVGETVTITCRPSENLYTNLAWYQQKQGKSPQLLVYGATNLADGVPSRFSGSGSGTQYSLRINSLQSEDFGTYYCQHLWGTPFTFGSGTKLELK |  |
